Data reported in patent publication US20250276077A1, “EPHA2 ANTIBODIES” (Immunome, Inc., priority 2022, published 2025).

Legend:
Human EphA2 (human) [1] = target: Human EphA2 (human) (UniProt P29317); assay: IHC/IF on frozen human tumor tissue: ESO
Human EphA2 (human) [2] = target: Human EphA2 (human) (UniProt P29317); assay: IHC/IF on frozen human tumor tissue: STS
Human EphA2 (human) [3] = target: Human EphA2 (human) (UniProt P29317); assay: IHC/IF on frozen human tumor tissue: OVA
Human EphA2 (human) [4] = target: Human EphA2 (human) (UniProt P29317); assay: IHC/IF on frozen human tumor tissue: RCC-clear cell
Human EphA2 (human) [5] = target: Human EphA2 (human) (UniProt P29317); assay: IHC/IF on frozen human tumor tissue: UCEC-clear cell
Human EphA2 (human) [6] = target: Human EphA2 (human) (UniProt P29317); assay: IHC/IF on frozen human tumor tissue: CRC
Human EphA2 (human) [7] = target: Human EphA2 (human) (UniProt P29317); assay: IHC/IF on frozen human tumor tissue: ER+ BRC
Human EphA2 (human) [8] = target: Human EphA2 (human) (UniProt P29317); assay: IHC/IF on frozen human tumor tissue: UCEC-endometrioid
Human EphA2 (human) [9] = target: Human EphA2 (human) (UniProt P29317); assay: IHC/IF on frozen human tumor tissue: PROC
Human EphA2 (human) [10] = target: Human EphA2 (human) (UniProt P29317); assay: IHC/IF on frozen human tumor tissue: PANC
Human EphA2 (human) [11] = target: Human EphA2 (human) (UniProt P29317); assay: IHC/IF on frozen human tumor tissue: Her2+ BRC
Human EphA2 (human) [12] = target: Human EphA2 (human) (UniProt P29317); assay: IHC/IF on frozen human tumor tissue: RCC-papillary
Human EphA2 (human) [13] = target: Human EphA2 (human) (UniProt P29317); assay: IHC/IF on frozen human tumor tissue: ANC
Human EphA2 (human) [14] = target: Human EphA2 (human) (UniProt P29317); assay: IHC/IF on frozen human tumor tissue: GAC
Human EphA2 (human) [15] = target: Human EphA2 (human) (UniProt P29317); assay: IHC/IF on frozen human tumor tissue: URO
Human EphA2 (human) [16] = target: Human EphA2 (human) (UniProt P29317); assay: IHC/IF on frozen human tumor tissue: HNC
Human EphA2 (human) [17] = target: Human EphA2 (human) (UniProt P29317); assay: IHC/IF on frozen human tumor tissue: NSCLC-SQ
Human EphA2 (human) [18] = target: Human EphA2 (human) (UniProt P29317); assay: IHC/IF on frozen human tumor tissue: TNBC
Human EphA2 (human) [19] = target: Human EphA2 (human) (UniProt P29317); assay: IHC/IF on frozen human tumor tissue: UCEC-papillary
Human EphA2 (human) [20] = target: Human EphA2 (human) (UniProt P29317); assay: IHC/IF on frozen human tumor tissue: NSCLC-Adeno
Human EphA2 (human) [21] = target: Human EphA2 (human) (UniProt P29317); assay: IHC/IF on frozen human tumor tissue: MELA
[22] = target: Human EphA2 (ephrin receptor A2), native, in human tumor tissue (human) (UniProt P29317); assay: tissue staining of human cancer samples, 30 ug/ml (the box on the sheet prints AB-010017 twice)
[23] = target: Human EphA2 (ephrin receptor A2), native, in human tumor tissue (human) (UniProt P29317); assay: tissue staining of human cancer samples, 3 ug/ml
[24] = target: Human EphA2 (ephrin receptor A2), native, in human tumor tissue (human) (UniProt P29317); assay: tissue staining of human cancer samples, 30 ug/ml

6997S (around Arg907) (antibody)
IHC score (Human EphA2 (human) [1]): 2
IHC score (Human EphA2 (human) [2]): 1
IHC score (Human EphA2 (human) [3]): 1
IHC score (Human EphA2 (human) [4]): 1
IHC score (Human EphA2 (human) [5]): 2
IHC score (Human EphA2 (human) [6]): 1
IHC score (Human EphA2 (human) [7]): 1
IHC score (Human EphA2 (human) [8]): 1
IHC score (Human EphA2 (human) [9]): 1
IHC score (Human EphA2 (human) [10]): 1
IHC score (Human EphA2 (human) [11]): 1
IHC score (Human EphA2 (human) [12]): 1
IHC score (Human EphA2 (human) [13]): 2
IHC score (Human EphA2 (human) [14]): 1
IHC score (Human EphA2 (human) [15]): 1
IHC score (Human EphA2 (human) [16]): 1
IHC score (Human EphA2 (human) [17]): 1
IHC score (Human EphA2 (human) [18]): 1
IHC score (Human EphA2 (human) [19]): 2
IHC score (Human EphA2 (human) [20]): 1
IHC score (Human EphA2 (human) [21]): 2

AB-010016 (based on Medi-547; mouse IgG2a format) (antibody)
Reactive (% of samples), Bladder Cancer (Urothelial) [22]: 50%
Reactive (% of samples), Breast Cancer [22]: 47%
Reactive (% of samples), Cervical Cancer (Squamous) [22]: 40%
Reactive (% of samples), Colorectal Cancer (Adenocarcinoma) [22]: 40%
Reactive (% of samples), Esophageal Cancer (Squamous) [22]: 27%
Reactive (% of samples), Liver Cancer (HCC) [22]: 80%
Reactive (% of samples), Melanoma [22]: 29%
Reactive (% of samples), Non-Small Cell Lung Cancer [22]: 26%
Reactive (% of samples), Ovarian Cancer [22]: 53%
Reactive (% of samples), Renal Cancer [22]: 0%
Reactive (% of samples), Soft Tissue Sarcoma [22]: 9%
Reactive (% of samples), Stomach Cancer (Adenocarcinoma) [22]: 50%
Reactive (% of samples), Testicular Cancer [22]: 28%
Reactive (% of samples), Thyroid Cancer [22]: 44%
Reactive (% of samples), Uterine Cancer [22]: 21%
Reactive (% of samples), Bladder Urothelial Carcinoma [23]: 33%
Reactive (% of samples), Breast Cancer [23]: 0%
Reactive (% of samples), Cervical Squamous Cell Carcinoma [23]: 0%
Reactive (% of samples), Colorectal Adenocarcinoma [23]: 10%
Reactive (% of samples), Head & Neck Squamous Cell Carcinoma [23]: 0%
Reactive (% of samples), Liver Hepatocellular Cell Carcinoma [23]: 7%
Reactive (% of samples), Melanoma [23]: 0%
Reactive (% of samples), Non-Small Cell Lung Cancer [23]: 5%
Reactive (% of samples), Ovarian Cancer [23]: 0%
Reactive (% of samples), Renal Cancer [23]: 0%
Reactive (% of samples), Soft Tissue Sarcoma [23]: 0%
Reactive (% of samples), Stomach Adenocarcinoma [23]: 0%
Reactive (% of samples), Testicular Cancer [23]: 0%
Reactive (% of samples), Thyroid Cancer [23]: 0%
Reactive (% of samples), Uterine Cancer [23]: 0%

AB-010017 (based on MM-310; mouse IgG2a format) (antibody)
Reactive (% of samples), Bladder Urothelial Carcinoma [23]: 50%
Reactive (% of samples), Breast Cancer [23]: 0%
Reactive (% of samples), Cervical Squamous Cell Carcinoma [23]: 27%
Reactive (% of samples), Head & Neck Squamous Cell Carcinoma [23]: 38%
Reactive (% of samples), Liver Hepatocellular Cell Carcinoma [23]: 0%
Reactive (% of samples), Non-Small Cell Lung Cancer [23]: 11%
Reactive (% of samples), Ovarian Cancer [23]: 6%
Reactive (% of samples), Renal Cancer [23]: 0%
Reactive (% of samples), Soft Tissue Sarcoma [23]: 3%
Reactive (% of samples), Stomach Adenocarcinoma [23]: 25%
Reactive (% of samples), Testicular Cancer [23]: 0%
Reactive (% of samples), Thyroid Cancer [23]: 8%
Reactive (% of samples), Bladder Cancer (Urothelial) [24]: 38%
Reactive (% of samples), Breast Cancer [24]: 8%
Reactive (% of samples), Cervical Cancer (Squamous) [24]: 36%
Reactive (% of samples), Colorectal Cancer (Adenocarcinoma) [24]: 10%
Reactive (% of samples), Esophageal Cancer (Squamous) [24]: 13%
Reactive (% of samples), Liver Cancer (HCC) [24]: 43%
Reactive (% of samples), Melanoma [24]: 7%
Reactive (% of samples), Non-Small Cell Lung Cancer [24]: 5%
Reactive (% of samples), Ovarian Cancer [24]: 47%
Reactive (% of samples), Renal Cancer [24]: 12%
Reactive (% of samples), Soft Tissue Sarcoma [24]: 3%
Reactive (% of samples), Stomach Cancer (Adenocarcinoma) [24]: 25%
Reactive (% of samples), Testicular Cancer [24]: 0%
Reactive (% of samples), Thyroid Cancer [24]: 0%
Reactive (% of samples), Uterine Cancer [24]: 7%

Ab73254 (extracellular) (antibody)
IHC score (Human EphA2 (human) [1]): 1
IHC score (Human EphA2 (human) [2]): 1
IHC score (Human EphA2 (human) [3]): 1
IHC score (Human EphA2 (human) [4]): 1
IHC score (Human EphA2 (human) [5]): 2
IHC score (Human EphA2 (human) [6]): 1
IHC score (Human EphA2 (human) [7]): 1
IHC score (Human EphA2 (human) [8]): 1
IHC score (Human EphA2 (human) [9]): 1
IHC score (Human EphA2 (human) [10]): 1
IHC score (Human EphA2 (human) [11]): 1
IHC score (Human EphA2 (human) [12]): 1
IHC score (Human EphA2 (human) [13]): 1
IHC score (Human EphA2 (human) [14]): 1
IHC score (Human EphA2 (human) [15]): 1
IHC score (Human EphA2 (human) [16]): 1
IHC score (Human EphA2 (human) [17]): 2
IHC score (Human EphA2 (human) [18]): 1
IHC score (Human EphA2 (human) [19]): 1
IHC score (Human EphA2 (human) [20]): 2
IHC score (Human EphA2 (human) [21]): 2
